# B1: Pistol ribozyme (parent)
# chain: GGGUCGUUGUUCCAUAAUCGCGUGGAUAUGGCACGCAAGUUUCUACCGGGCACCGUAAAUGUCCGACUGGAGCCGUUCGGGCGGCUAUAAACAGACCUCAGGCCCGAAGCGUGGCGGCACCUGCCGCCGGUGGUAAAAAAGAUCGGAAGAGCACACGUCU
# Variants of: B1
# Test: aptazyme ON/OFF ratio, guanine; higher = stronger switching; co-transcriptional cleavage with and without guanine
row,Variant,aptazyme ON/OFF ratio
1,G9C U11A,1.78
2,G9C U11G,2.2
3,G9C U11C,1.18
4,G9C U10G U11G,1.09
5,G9C U10G U11A,1.08
6,G9C U10G U11C,1.06
7,G9C U10C C12A,1.09
8,G9C U10C C12U,1.12
9,G9C U10C C12G,1.06
10,G9C U11A C12G C13A,1.2
11,G9C U11A C12G C13U,1.22
12,G9C U11A C12G C13G,1.24
13,G9C U10A C13G,1.08
14,G9C U10A C13U,1.3
15,G9C U10A C13A,1.3
16,G9C U11C C12G,1.22
17,G9C U11C C12A,1.25
18,G9C U11C C12U,1.14
19,G9C U10G U11A C13U,1.05
20,G9C U10G U11A C13A,1.08
21,G9C U10G U11A C13G,1.09
22,G9U U10A U11A C12A C13A,1.37
23,G9U U10A U11A C12A C13U,1.41
24,G9U U10A U11A C12A C13G,1.29

row,Variant,aptazyme ON/OFF ratio
1,G9C U10A U11A C12A C13U,1.27
2,G9C U10A U11A C12A C13G,1.21
3,G9C U10A U11A C12A C13A,1.4
4,G9C U10G U11A C12A C13G,1.06
5,G9C U10G U11A C12A C13U,1.52
6,G9C U10G U11A C12A C13A,1.23
7,G9C U10A C12U C13G,1.17
8,G9C U10A C12U C13A,1.24
9,G9C U10A C12U C13U,1.07
10,G9C U10A U11C C12U C13U,1.29
11,G9C U10A U11C C12U C13A,1.25
12,G9C U10A U11C C12U C13G,1.12
13,G9C U10A U11C,1.06
14,G9C U10A U11G,2.06
15,G9C U10A U11A,2.14
16,G9C U10A U11G C12U C13U,1.26
17,G9C U10A U11G C12U C13A,1.08
18,G9C U10A U11G C12U C13G,1.16
19,G9U U10A C13G,1.27
20,G9U U10A C13U,1.54
21,G9U U10A C13A,1.27
22,G9A U11G C13A,1.37
23,G9A U11G C13U,1.44
24,G9A U11G C13G,1.1

row,Variant,aptazyme ON/OFF ratio
1,G9C U10C U11A C12U C13U,1.06
2,G9C U10C U11A C12U C13A,1.08
3,G9C U10C U11A C12U C13G,1.1
4,G9C U10A U11C C12A C13G,1.18
5,G9C U10A U11C C12A C13U,1.29
6,G9C U10A U11C C12A C13A,1.3
7,G9A U11G C12G C13G,1.3
8,G9A U11G C12G C13A,1.18
9,G9A U11G C12G C13U,1.15
10,G9C U11C C12A C13U,1.16
11,G9C U11C C12A C13G,1.09
12,G9C U11C C12A C13A,1.12
13,G9C U10C U11A C12G,1.14
14,G9C U10C U11A C12U,1.13
15,G9C U10C U11A C12A,1.07
16,G9C U10G U11C C13U,1.06
17,G9C U10G U11C C13G,1.03
18,G9C U10G U11C C13A,1.24
19,G9U U10A U11G,2.39
20,G9U U10A U11C,1.33
21,G9U U10A U11A,2.34
22,G9C U10C U11A,1.12
23,G9C U10C U11G,1.41
24,G9C U10C U11C,0.976

row,Variant,aptazyme ON/OFF ratio
1,G9C U11G C12U C13G,1.25
2,G9C U11G C12U C13U,1.41
3,G9C U11G C12U C13A,1.3
4,G9C C12U C13U,1.31
5,G9C C12U C13G,1.04
6,G9C C12U C13A,1.14
7,G9U U10A C12U C13A,0.769
8,G9U U10A C12U C13G,1.1
9,G9U U10A C12U C13U,1.06
10,G9C U10C U11G C12G C13G,1.13
11,G9C U10C U11G C12G C13U,1.11
12,G9C U10C U11G C12G C13A,1.04
13,G9C U10C U11A C13A,1.05
14,G9C U10C U11A C13G,1.07
15,G9C U10C U11A C13U,1.07
16,G9C U10G U11C C12U C13G,1.09
17,G9C U10G U11C C12U C13A,1.2
18,G9C U10G U11C C12U C13U,1.24
19,G9U C12A,1.08
20,G9U C12G,1.75
21,G9U C12U,2.37
22,G9C U10C U11C C12U C13G,1.01
23,G9C U10C U11C C12U C13A,1.02
24,G9C U10C U11C C12U C13U,1.03

row,Variant,aptazyme ON/OFF ratio
1,G9C U10G C13G,1.1
2,G9C U10G C13A,1.28
3,G9C U10G C13U,1.49
4,G9C U10A U11C C12A,1.48
5,G9C U10A U11C C12U,1.13
6,G9C U10A U11C C12G,1.18
7,G9C U10G U11C C12G C13A,1.17
8,G9C U10G U11C C12G C13G,1.24
9,G9C U10G U11C C12G C13U,1.15
10,G9C U10C U11G C13U,1.08
11,G9C U10C U11G C13G,1.08
12,G9C U10C U11G C13A,1.06
13,G9C U10C U11G C12A,1.03
14,G9C U10C U11G C12U,1.07
15,G9C U10C U11G C12G,1.09
16,G9C C12A,1.38
17,G9C C12U,1.07
18,G9C C12G,1.35
19,G9U C12G C13U,1.43
20,G9U C12G C13A,1.52
21,G9U C12G C13G,1.27
22,G9C U10A U11C C13G,1.04
23,G9C U10A U11C C13U,1.06
24,G9C U10A U11C C13A,1.09

row,Variant,aptazyme ON/OFF ratio
1,G9C U11C C12G C13U,1.19
2,G9C U11C C12G C13A,1.13
3,G9C U11C C12G C13G,1.09
4,G9C U10C U11C C12G,1.04
5,G9C U10C U11C C12U,1.03
6,G9C U10C U11C C12A,1.04
7,G9C U10C U11A C12G C13U,1.22
8,G9C U10C U11A C12G C13A,1.19
9,G9C U10C U11A C12G C13G,1.19
10,G9U U10A C12G C13U,1.21
11,G9U U10A C12G C13G,1.33
12,G9U U10A C12G C13A,1.07
13,G9U C13A,1.34
14,G9U C13G,1.09
15,G9U C13U,2.07
16,G9U U10A U11C C12G C13U,1.47
17,G9U U10A U11C C12G C13G,0.978
18,G9U U10A U11C C12G C13A,1.3
19,G9C U10C,1.52
20,G9C U10G,2.17
21,G9C U10A,1.98
22,G9U U10A U11A C13G,1.17
23,G9U U10A U11A C13A,1.38
24,G9U U10A U11A C13U,1.25

row,Variant,aptazyme ON/OFF ratio
1,G9C U10C C13U,1.1
2,G9C U10C C13A,1.06
3,G9C U10C C13G,1.06
4,G9U U10A C12A C13U,1.09
5,G9U U10A C12A C13A,1.22
6,G9U U10A C12A C13G,0.84
7,G9A U11G C12A C13U,1.32
8,G9C U10A U11G C13G,1.09
9,G9C U10A U11G C13A,1.21
10,G9C U10A U11G C13U,1.35
11,G9C U11C C13A,1.06
12,G9C U11C C13U,1.04
13,G9C U11C C13G,1.03
14,G9U U10A U11A C12U C13U,1.08
15,G9U U10A U11A C12U C13G,1.7
16,G9U U10A U11A C12U C13A,1.09
17,G9C U10G U11A C12G,1.27
18,G9C U10G U11A C12A,1.31
19,G9C U10G U11A C12U,1.04
20,G9U U10A U11C C12U C13A,1.11
21,G9U U10A U11C C12U C13U,1.5
22,G9U U10A U11C C12U C13G,1.39
23,G9C U10G U11G C12U C13G,1.08

# From the RNAGym collection of RNA variant scans (doi:10.1021/acssynbio.7b00057)
